According to article doi:10.64898/2025.12.11.693645 (bioRxiv, 2025):

Biological target: the molecule itself
Assay: crystal structure

B1: full length HtpG from M. tuberculosis (HtpGMtb) (enzyme)
chain: MNAHVEQLEFQAEARQLLDLMVHSVYSNKDAFLRELISNASDALDKLRIEALRNKDLEVDTSDLHIEIDADKAARTLTVRDNGIGMAREEVVDLIGTLAKSGTAELRAQLREAKNAAASEELIGQFGIGFYSSFMVADKVQLLTRKAGESAATRWESSGEGTYTIESVEDAPQGTSVTLHLKPEDAEDDLHDYTSEWKIRNLVKKYSDFIAWPIRMDVERRTPASQEEGGEGGEETVTIETETLNSMKALWARPKEEVSEQEYKEFYKHVAHAWDDPLEIIAMKAEGTFEYQALLFIPSHAPFDLFDRDAHVGIQLYVKRVFIMGDCDQLMPEYLRFVKGVVDAQDMSLNVSREILQQDRQIKAIRRRLTKKVLSTIKDVQSSRPEDYRTFWTQFGRVLKEGLLSDIDNRETLLGISSFVSTYSEEEPTTLAEYVERMKDGQQQIFYATGETRQQLLKSPHLEAFKAKGYEVLLLTDPVDEVWVGMVPEFDGKPLQSVAKGEVDLSSEEDTSEAEREERQKEFADLLTWLQETLSDHVKEVRLSTRLTESPACLITDAFGMTPALARIYRASGQEVPVGKRILELNPSHPLVTGLRQAHQDRADDAEKSLAETAELLYGTALLAEGGALEDPARFAELLAERLARTL
**Q.** Does B1 bind?
**A.** Result: binds
